Measured values published in patent US20230025732A1 (INNATE PHARMA, published 2023).
Residue numbers refer to the chain shown, from its start.

Assays:
[1] = molecular target: T1, human CD39 expressed at the cell surface (human, UniProt P49961 1-510); assay: flow cytometry, Ramos lymphoma cells, second set of experiments; Ramos cells, second set of experiments
T1 construct: On CHO transfectants, Hek-293T transfectants, Ramos and Mino tumor cells; also called huCD39; CHO-huCD39
T1 sequence: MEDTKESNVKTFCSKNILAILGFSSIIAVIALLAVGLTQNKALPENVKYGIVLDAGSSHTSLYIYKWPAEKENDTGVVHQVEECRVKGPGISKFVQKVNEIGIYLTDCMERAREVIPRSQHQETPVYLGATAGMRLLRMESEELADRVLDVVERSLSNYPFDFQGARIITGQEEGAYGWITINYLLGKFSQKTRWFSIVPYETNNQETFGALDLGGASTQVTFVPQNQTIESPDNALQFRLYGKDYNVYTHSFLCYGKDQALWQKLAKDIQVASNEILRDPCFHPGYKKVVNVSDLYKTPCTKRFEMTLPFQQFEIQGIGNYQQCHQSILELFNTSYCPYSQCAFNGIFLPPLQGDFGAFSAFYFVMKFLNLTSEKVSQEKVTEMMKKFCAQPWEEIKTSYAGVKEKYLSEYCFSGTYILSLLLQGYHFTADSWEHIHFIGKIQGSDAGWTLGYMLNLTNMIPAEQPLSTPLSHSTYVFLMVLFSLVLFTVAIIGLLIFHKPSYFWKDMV
Method: (§1) Cells were incubated with various concentration of unlabeled anti-CD39 antibody from 30 μg/ml to 5×10⁻⁴ μg/ml, for 30 minutes at 4° C. After washes, cells were incubated with Goat anti-mouse H+L labeled secondary antibody for 30 min at 4° C.

[2] = molecular target: T1, human CD39 expressed at the cell surface; assay: flow cytometry titration on CHO cells expressing human CD39 (Mediane of Fluo), panel CHO-huCD39
Method: as §1

CD39 mutant 19 = molecular target: T2, CD39 mutant 19 (human, UniProt P49961 1-510); assay: flow cytometry on Hek-293T cells transfected with CD39 mutant 19 (panel M19); antibody concentration not given on the sheet
T2 construct: expressed on Hek-293T cells; also called M19
T2 chain: T1 sequence with R138A, M139A, E142K
Text: Mutants were transfected in Hek-293T cells, as shown in the table 1, using numbering of SEQ ID NO: 1. […] Mutant 19 includes substitutions at residues R138, M139 and E142.

B1: I-394 (antibody, human IgG1, V domains shown)
VH: EVQLQQSGPELVKPGASVKMSCKASGYTFTDYNMHWVKQSHGRTLEWIGYIVPLNGGSTFNQKFKGRATLTVNTSSRTAYMELRSLTSEDSAAYYCARGGTRFAYWGQGTLVTVSA
VL: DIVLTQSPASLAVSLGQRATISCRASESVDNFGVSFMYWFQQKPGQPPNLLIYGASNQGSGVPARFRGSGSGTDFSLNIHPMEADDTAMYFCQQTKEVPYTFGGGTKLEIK
In the case of B1, the EC50 [1] is reported as 0.19 µg/mL, the “EC50 (read off the curve)” value [2] is reported as ~0.2 µg/mL and the binding result (CD39 mutant 19) is reported as “no binding”.
